Assay results: article PMC5503505 (Nature structural & molecular biology, 2017)

T1: Cdt1 (S. cerevisiae, UniProt P47112 1-604)
T1 sequence: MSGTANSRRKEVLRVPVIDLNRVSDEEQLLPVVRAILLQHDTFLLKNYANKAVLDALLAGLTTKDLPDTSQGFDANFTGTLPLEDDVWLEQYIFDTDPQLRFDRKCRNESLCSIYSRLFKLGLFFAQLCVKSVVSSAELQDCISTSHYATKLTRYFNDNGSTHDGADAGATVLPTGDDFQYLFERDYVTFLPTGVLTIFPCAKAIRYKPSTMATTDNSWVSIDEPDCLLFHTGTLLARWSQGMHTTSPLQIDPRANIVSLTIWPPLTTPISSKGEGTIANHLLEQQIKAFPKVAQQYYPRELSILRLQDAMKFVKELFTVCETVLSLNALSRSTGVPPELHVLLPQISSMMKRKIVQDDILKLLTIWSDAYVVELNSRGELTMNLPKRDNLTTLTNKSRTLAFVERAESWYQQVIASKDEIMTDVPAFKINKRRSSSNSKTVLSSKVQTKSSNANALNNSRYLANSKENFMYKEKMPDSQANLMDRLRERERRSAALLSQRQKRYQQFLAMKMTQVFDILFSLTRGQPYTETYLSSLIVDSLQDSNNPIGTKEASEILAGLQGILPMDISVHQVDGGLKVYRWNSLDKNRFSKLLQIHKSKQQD

T2: Mcm5 (S. cerevisiae, UniProt P29496 1-775)
T2 sequence: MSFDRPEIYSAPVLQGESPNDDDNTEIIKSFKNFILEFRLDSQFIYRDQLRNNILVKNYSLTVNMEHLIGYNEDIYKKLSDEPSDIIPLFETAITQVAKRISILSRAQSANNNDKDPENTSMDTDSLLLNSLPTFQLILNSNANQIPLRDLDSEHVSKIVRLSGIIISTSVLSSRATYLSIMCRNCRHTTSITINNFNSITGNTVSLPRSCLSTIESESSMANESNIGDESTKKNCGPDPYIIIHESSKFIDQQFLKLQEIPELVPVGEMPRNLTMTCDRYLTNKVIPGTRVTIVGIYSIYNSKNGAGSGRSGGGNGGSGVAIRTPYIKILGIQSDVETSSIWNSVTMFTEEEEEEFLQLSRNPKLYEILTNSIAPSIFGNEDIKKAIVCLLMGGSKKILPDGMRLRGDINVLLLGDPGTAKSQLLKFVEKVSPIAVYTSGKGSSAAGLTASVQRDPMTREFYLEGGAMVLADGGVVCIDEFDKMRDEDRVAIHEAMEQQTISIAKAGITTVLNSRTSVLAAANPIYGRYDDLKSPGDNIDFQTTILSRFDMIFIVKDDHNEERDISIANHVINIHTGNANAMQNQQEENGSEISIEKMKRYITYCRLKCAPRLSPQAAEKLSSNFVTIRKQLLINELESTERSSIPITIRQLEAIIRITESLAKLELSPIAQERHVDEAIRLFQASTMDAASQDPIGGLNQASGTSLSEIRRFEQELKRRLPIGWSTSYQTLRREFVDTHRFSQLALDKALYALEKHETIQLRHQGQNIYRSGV

T3: Orc1 (S. cerevisiae, UniProt P54784 1-914)
T3 sequence: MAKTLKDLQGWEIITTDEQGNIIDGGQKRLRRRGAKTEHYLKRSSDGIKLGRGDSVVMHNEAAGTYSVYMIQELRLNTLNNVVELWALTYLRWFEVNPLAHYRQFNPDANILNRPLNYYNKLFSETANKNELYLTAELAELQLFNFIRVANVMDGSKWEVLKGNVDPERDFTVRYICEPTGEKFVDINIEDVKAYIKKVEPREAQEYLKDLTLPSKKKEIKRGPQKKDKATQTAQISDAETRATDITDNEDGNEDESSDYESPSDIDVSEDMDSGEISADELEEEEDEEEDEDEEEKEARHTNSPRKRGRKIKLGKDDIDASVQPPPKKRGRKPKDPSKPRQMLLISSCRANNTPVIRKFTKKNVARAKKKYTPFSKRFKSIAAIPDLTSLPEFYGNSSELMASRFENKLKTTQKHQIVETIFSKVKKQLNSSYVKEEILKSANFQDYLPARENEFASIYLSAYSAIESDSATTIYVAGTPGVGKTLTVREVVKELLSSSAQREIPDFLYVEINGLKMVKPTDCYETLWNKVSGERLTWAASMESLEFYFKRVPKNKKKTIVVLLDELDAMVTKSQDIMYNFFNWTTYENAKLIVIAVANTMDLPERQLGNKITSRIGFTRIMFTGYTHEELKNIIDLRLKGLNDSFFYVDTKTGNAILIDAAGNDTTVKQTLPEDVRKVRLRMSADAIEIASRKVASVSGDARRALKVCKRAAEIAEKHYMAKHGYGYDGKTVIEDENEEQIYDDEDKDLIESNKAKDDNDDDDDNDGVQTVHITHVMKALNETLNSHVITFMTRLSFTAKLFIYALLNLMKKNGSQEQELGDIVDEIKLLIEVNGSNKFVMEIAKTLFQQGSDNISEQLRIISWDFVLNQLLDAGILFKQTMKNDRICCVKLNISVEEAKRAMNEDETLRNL

T4: Mcm7 (S. cerevisiae, UniProt P38132 1-845)
T4 sequence: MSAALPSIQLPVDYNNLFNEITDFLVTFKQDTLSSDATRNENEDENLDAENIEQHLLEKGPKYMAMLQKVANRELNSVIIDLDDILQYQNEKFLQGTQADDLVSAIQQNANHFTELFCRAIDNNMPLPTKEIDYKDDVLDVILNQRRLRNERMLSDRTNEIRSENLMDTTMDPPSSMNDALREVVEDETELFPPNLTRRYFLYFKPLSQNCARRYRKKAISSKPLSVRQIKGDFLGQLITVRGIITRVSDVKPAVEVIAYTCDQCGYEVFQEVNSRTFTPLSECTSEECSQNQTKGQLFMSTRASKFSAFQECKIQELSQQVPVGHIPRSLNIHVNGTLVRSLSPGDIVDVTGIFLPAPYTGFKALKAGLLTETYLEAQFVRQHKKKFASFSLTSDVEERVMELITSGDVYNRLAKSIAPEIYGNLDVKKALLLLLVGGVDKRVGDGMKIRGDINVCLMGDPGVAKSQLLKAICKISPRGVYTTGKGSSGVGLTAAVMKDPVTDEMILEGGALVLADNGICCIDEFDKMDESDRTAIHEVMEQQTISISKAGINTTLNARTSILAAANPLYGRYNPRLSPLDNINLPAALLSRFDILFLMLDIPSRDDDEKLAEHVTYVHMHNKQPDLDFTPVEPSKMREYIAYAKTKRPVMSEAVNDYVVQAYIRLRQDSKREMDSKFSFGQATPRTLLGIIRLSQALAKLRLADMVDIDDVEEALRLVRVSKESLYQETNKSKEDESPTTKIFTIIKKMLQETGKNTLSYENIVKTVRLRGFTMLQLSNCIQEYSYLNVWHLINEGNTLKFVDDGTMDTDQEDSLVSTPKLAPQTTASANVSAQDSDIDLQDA

B1: Orc6 (natural protein)
chain: MSMQQVQHCVAEVLRLDPQEKPDWSSGYLKKLTNATSILYNTSLNKVMLKQDEEVARCHICAYIASQKMNEKHMPDLCYYIDSIPLEPKKAKHLMNLFRQSLSNSSPMKQFAWTPSPKKNKRSPVKNGGRFTSSDPKELRNQLFGTPTKVRKSQNNDSFVIPELPPMQTNESPSITRRKLAFEEDEDEDEEEPGNDGLSLKSHSNKSITGTRNVDSDEYENHESDPTSEEEPLGVQESRSGRTKQNKAVGKPQSELKTAKALRKRGRIPNSLLVKKYCKMTTEEIIRLCNDFELPREVAYKIVDEYNINASRLVCPWQLVCGLVLNCTFIVFNERRRKDPRIDHFIVSKMCSLMLTSKVDDVIECVKLVKELIIGEKWFRDLQIRYDDFDGIRYDEIIFRKLGSMLQTTNILVTDDQYNIWKKRIEMDLALTEPL
B2: Orc2 (natural protein)
chain: MLNGEDFVEHNDILSSPAKSRNVTPKRVDPHGERQLRRIHSSKKNLLERISLVGNERKNTSPDPALKPKTPSKAPRKRGRPRKIQEELTDRIKKDEKDTISSKKKRKLDKDTSGNVNEESKTSNNKQVMEKTGIKEKREREKIQVATTTYEDNVTPQTDDNFVSNSPEPPEPATPSKKSLTTNHDFTSPLKQIIMNNLKEYKDSTSPGKLTLSRNFTPTPVPKNKKLYQTSETKSASSFLDTFEGYFDQRKIVRTNAKSRHTMSMAPDVTREEFSLVSNFFNENFQKRPRQKLFEIQKKMFPQYWFELTQGFSLLFYGVGSKRNFLEEFAIDYLSPKIAYSQLAYENELQQNKPVNSIPCLILNGYNPSCNYRDVFKEITDLLVPAELTRSETKYWGNHVILQIQKMIDFYKNQPLDIKLILVVHNLDGPSIRKNTFQTMLSFLSVIRQIAIVASTDHIYAPLLWDNMKAQNYNFVFHDISNFEPSTVESTFQDVMKMGKSDTSSGAEGAKYVLQSLTVNSKKMYKLLIETQMQNMGNLSANTGPKRGTQRTGVELKLFNHLCAADFIASNEIALRSMLREFIEHKMANITKNNSGMEIIWVPYTYAELEKLLKTVLNTL
B3: Cdc6 (natural protein)
chain: MSAIPITPTKRIRRNLFDDAPATPPRPLKRKKLQFTDVTPESSPEKLQFGSQSIFLRTKALLQKSSELVNLNSSDGALPARTAEYEQVMNFLAKAISEHRSDSLYITGPPGTGKTAQLDMIIRQKFQSLPLSLSTPRSKDVLRHTNPNLQNLSWFELPDGRLESVAVTSINCISLGEPSSIFQKIFDSFQDLNGPTLQIKNMQHLQKFLEPYHKKTTFVVVLDEMDRLLHANTSETQSVRTILELFLLAKLPTVSFVLIGMANSLDMKDRFLSRLNLDRGLLPQTIVFQPYTAEQMYEIVIQKMSSLPTIIFQPMAIKFAAKKCAGNTGDLRKLFDVLRGSIEIYELEKRFLLSPTRGSLNSAQVPLTPTTSPVKKSYPEPQGKIGLNYIAKVFSKFVNNNSTRTRIAKLNIQQKLILCTIIQSLKLNSDATIDESFDHYIKAITKTDTLAPLQRNEFLEICTILETCGLVSIKKTKCKGKTKRFVDKIDVDLDMREFYDEMTKISILKPFLH

Assays:
Cdt1 = target: T1, Cdt1; test: cross-linking
Orc2 = target: B2; test: cross-linking
Mcm3 = Mcm3 (S. cerevisiae, UniProt P24279 1-971); test: cryo-EM structure
Mcm5 = target: T2, Mcm5; test: cross-linking
Orc1 = target: T3, Orc1; test: cryo-EM structure
Mcm7 = target: T4, Mcm7; test: cryo-EM structure

Chain of Mcm3 (P24279 whole entry): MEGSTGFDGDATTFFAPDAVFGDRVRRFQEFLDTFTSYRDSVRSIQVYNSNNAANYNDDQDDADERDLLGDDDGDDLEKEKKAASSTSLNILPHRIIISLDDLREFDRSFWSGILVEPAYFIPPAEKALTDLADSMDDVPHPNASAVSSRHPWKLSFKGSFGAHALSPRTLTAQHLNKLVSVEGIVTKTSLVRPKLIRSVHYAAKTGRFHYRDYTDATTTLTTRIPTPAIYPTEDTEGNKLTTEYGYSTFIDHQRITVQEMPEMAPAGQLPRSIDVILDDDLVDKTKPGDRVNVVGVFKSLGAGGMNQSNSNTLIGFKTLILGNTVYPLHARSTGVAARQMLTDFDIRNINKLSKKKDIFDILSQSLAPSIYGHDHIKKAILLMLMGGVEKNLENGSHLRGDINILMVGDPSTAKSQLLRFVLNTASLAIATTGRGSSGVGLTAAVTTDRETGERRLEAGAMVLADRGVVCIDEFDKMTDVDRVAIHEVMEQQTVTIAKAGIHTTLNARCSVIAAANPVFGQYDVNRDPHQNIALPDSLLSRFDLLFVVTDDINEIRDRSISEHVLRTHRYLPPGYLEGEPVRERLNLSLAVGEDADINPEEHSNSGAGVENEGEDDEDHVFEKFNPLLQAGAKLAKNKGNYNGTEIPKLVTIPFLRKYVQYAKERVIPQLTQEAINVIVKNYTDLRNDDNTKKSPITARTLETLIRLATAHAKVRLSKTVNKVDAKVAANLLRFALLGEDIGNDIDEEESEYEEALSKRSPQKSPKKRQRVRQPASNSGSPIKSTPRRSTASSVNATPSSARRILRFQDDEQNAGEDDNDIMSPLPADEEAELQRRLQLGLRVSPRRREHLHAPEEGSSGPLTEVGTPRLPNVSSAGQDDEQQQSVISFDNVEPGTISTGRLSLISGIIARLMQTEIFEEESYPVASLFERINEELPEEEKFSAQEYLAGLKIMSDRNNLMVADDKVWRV

B1
binding result (Cdt1): binds
binding result (Orc2): binds

B2
binding result (Mcm3): binds
binding result (Mcm5): binds

B3
binding result (Orc1): binds
binding result (Mcm7): binds
